Test results taken from IntAct's records for PubMed 25416956.

B1: Keratin, type II cytoskeletal 6A (Homo sapiens), P02538 (parent)
chain: MASTSTTIRSHSSSRRGFSANSARLPGVSRSGFSSVSVSRSRGSGGLGGACGGAGFGSRSLYGLGGSKRISIGGGSCAISGGYGSRAGGSYGFGGAGSGFGFGGGAGIGFGLGGGAGLAGGFGGPGFPVCPPGGIQEVTVNQSLLTPLNLQIDPTIQRVRAEEREQIKTLNNKFASFIDKVRFLEQQNKVLETKWTLLQEQGTKTVRQNLEPLFEQYINNLRRQLDSIVGERGRLDSELRGMQDLVEDFKNKYEDEINKRTAAENEFVTLKKDVDAAYMNKVELQAKADTLTDEINFLRALYDAELSQMQTHISDTSVVLSMDNNRNLDLDSIIAEVKAQYEEIAQRSRAEAESWYQTKYEELQVTAGRHGDDLRNTKQEIAEINRMIQRLRSEIDHVKKQCANLQAAIADAEQRGEMALKDAKNKLEGLEDALQKAKQDLARLLKEYQELMNVKLALDVEIATYRKLLEGEECRLNGEGVGQVNISVVQSTVSSGYGGASGVGSGLGLGGGSSYSYGSGLGVGGGFSSSSGRAIGGGLSSVGGGSSTIKYTTTSSSSRKSYKH
partner: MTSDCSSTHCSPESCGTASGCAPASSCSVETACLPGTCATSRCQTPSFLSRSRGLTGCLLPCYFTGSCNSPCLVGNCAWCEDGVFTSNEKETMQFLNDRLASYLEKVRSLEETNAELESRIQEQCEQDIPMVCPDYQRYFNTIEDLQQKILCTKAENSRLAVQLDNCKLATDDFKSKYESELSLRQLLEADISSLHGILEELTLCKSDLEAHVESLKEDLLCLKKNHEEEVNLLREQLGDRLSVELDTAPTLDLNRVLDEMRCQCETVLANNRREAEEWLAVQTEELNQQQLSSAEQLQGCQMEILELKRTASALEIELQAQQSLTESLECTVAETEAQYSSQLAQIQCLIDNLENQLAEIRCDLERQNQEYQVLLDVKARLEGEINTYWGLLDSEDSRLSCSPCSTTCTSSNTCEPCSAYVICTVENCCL
B2: Keratin, type II cytoskeletal 6A (Homo sapiens), P02538 (parent)
chain: B1 chain
partner: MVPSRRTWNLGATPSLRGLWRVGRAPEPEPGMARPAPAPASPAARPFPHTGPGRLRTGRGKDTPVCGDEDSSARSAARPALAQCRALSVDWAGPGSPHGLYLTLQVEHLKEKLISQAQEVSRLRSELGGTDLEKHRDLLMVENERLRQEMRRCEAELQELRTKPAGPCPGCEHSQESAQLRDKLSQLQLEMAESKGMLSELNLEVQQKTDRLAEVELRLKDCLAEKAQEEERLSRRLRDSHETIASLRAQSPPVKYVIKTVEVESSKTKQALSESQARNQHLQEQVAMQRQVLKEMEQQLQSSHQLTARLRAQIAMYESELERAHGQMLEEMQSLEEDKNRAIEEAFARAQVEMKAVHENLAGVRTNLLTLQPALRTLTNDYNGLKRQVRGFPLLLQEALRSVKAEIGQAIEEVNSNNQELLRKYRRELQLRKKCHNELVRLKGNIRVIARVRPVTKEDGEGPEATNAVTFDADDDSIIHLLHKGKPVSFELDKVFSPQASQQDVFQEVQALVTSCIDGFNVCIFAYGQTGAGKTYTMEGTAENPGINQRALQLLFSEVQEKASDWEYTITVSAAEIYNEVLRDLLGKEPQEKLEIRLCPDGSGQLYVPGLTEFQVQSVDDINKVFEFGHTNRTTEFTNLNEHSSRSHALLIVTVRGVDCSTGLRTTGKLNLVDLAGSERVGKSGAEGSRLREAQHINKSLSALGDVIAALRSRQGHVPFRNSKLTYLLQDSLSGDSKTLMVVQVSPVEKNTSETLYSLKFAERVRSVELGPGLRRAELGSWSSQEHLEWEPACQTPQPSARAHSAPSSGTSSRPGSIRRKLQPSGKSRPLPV
B3: Keratin, type II cytoskeletal 6A (Homo sapiens), P02538 (parent)
chain: B1 chain
partner: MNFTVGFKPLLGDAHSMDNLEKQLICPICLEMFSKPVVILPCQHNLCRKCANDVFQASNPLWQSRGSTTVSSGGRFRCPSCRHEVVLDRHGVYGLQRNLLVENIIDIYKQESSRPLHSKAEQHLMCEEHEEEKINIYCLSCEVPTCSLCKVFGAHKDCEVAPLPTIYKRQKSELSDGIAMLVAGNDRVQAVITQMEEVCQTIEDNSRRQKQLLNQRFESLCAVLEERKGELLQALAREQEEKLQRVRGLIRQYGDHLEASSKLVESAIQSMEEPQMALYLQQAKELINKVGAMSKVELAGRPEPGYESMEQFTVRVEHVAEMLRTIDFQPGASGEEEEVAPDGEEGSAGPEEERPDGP
B4: Keratin, type II cytoskeletal 6A (Homo sapiens), P02538 (parent)
chain: B1 chain

Variants of: B1
Details: with KRT40, Q6A162

Variant	effect of a mutation on the interaction
MASTSTTIRSHSSSRRGFSANSARLPGVSRSGFSSVSVSRSRGSGGLGGACGGAGFGSRSLYGLGGSKRISIGGGSCAISGGYGSRAGGSYGFGGAGSGFGFGGGAGIGFGLGGGAGLAGGFGGPGFPVCPPGGIQEVTVNQSLLTPLNLQIDPTIQRVRAEEREQIKTLNNKFASFIDKVRFLEQQNKVLETKWTLLQEQGTKTVRQNLEPLFEQYINNLRRQLDSIVGERGRLDSELRGMQDLVEDFKNKYEDEINKRTAAENEFVTLKKDVDAAYMNKVELQAKADTLTDEINFLRALYDAELSQMQTHISDTSVVLSMDNNRNLDLDSIIAEVKAQYEEIAQRSRAEAESWYQTKYEELQVTAGRHGDDLRNTKQEIAEINRMIQRLRSEIDHVKKQCANLQAAIADAEQRGEMALKDAKNKLEGLEDALQKAKQDLARLLKEYQELMNVKLALDVEIPTYRKLLEGEECRLNGEGVGQVNISVVQSTVSSGYGGASGVGSGLGLGGGSSYSYGSGLGVGGGFSSSSGRAIGGGLSSVGGGSSTIKYTTTSSSSRKSYKH [A463P]	disrupting interaction

Variants of: B2
Details: with kifc3_human KIFC3, Q9BVG8

Variant	effect of a mutation on the interaction
MASTSTTIRSHSSSRRGFSANSARLPGVSRSGFSSVSVSRSRGSGGLGGACGGAGFGSRSLYGLGGSKRISIGGGSCAISGGYGSRAGGSYGFGGAGSGFGFGGGAGIGFGLGGGAGLAGGFGGPGFPVCPPGGIQEVTVNQSLLTPLNLQIDPTIQRVRAEEREQIKTLKNKFASFIDKVRFLEQQNKVLETKWTLLQEQGTKTVRQNLEPLFEQYINNLRRQLDSIVGERGRLDSELRGMQDLVEDFKNKYEDEINKRTAAENEFVTLKKDVDAAYMNKVELQAKADTLTDEINFLRALYDAELSQMQTHISDTSVVLSMDNNRNLDLDSIIAEVKAQYEEIAQRSRAEAESWYQTKYEELQVTAGRHGDDLRNTKQEIAEINRMIQRLRSEIDHVKKQCANLQAAIADAEQRGEMALKDAKNKLEGLEDALQKAKQDLARLLKEYQELMNVKLALDVEIATYRKLLEGEECRLNGEGVGQVNISVVQSTVSSGYGGASGVGSGLGLGGGSSYSYGSGLGVGGGFSSSSGRAIGGGLSSVGGGSSTIKYTTTSSSSRKSYKH [N171K]	disrupting interaction

Variants of: B2
Details: with kifc3_human KIFC3, Q9BVG8
Remark: another data set of the same source

Variant	effect of a mutation on the interaction
MASTSTTIRSHSSSRRGFSANSARLPGVSRSGFSSVSVSRSRGSGGLGGACGGAGFGSRSLYGLGGSKRISIGGGSCAISGGYGSRAGGSYGFGGAGSGFGFGGGAGIGFGLGGGAGLAGGFGGPGFPVCPPGGIQEVTVNQSLLTPLNLQIDPTIQRVRAEEREQIKTLNNKFASFIDKVRFLEQQNKVLETKWTLLQEQGTKTVRQNLEPLFEQYINNLRRQLDSIVGERGRLDSELRGMQDLVEDFKNKYEDEINKRTAAENEFVTLKKDVDAAYMNKVELQAKADTLTDEINFLRALYDAELSQMQTHISDTSVVLSMDNNRNLDLDSIIAEVKAQYEEIAQRSRAEAESWYQTKYEELQVTAGRHGDDLRNTKQEIAEINRMIQRLRSEIDHVKKQCANLQAAIADAEQRGEMALKDAKNKLEGLEDALQKAKQDLARLLKEYQELMNVKLALDVESATYRKLLEGEECRLNGEGVGQVNISVVQSTVSSGYGGASGVGSGLGLGGGSSYSYGSGLGVGGGFSSSSGRAIGGGLSSVGGGSSTIKYTTTSSSSRKSYKH [I462S]	disrupting interaction

Variants of: B2
Details: with kifc3_human KIFC3, Q9BVG8
Remark: another data set of the same source

Variant	effect of a mutation on the interaction
MASTSTTIRSHSSSRRGFSANSARLPGVSRSGFSSVSVSRSRGSGGLGGACGGAGFGSRSLYGLGGSKRISIGGGSCAISGGYGSRAGGSYGFGGAGSGFGFGGGAGIGFGLGGGAGLAGGFGGPGFPVCPPGGIQEVTVNQSLLTPLNLQIDPTIQRVRAEEREQIKTLNNKFASFIDKVRFLEQQNKVLETKWTLLQEQGTKTVRQNLEPLFEQYINNLRRQLDSIVGERGRLDSELRGMQDLVEDFKNKYEDEINKRTAAENEFVTLKKDVDAAYMNKVELQAKADTLTDEINFLRALYDAELSQMQTHISDTSVVLSMDNNRNLDLDSIIAEVKAQYEEIAQRSRAEAESWYQTKYEELQVTAGRHGDDLRNTKQEIAEINRMIQRLRSEIDHVKKQCANLQAAIADAEQRGEMALKDAKNKLEGLEDALQKAKQDLARLLKEYQELMNVKLALDVEIPTYRKLLEGEECRLNGEGVGQVNISVVQSTVSSGYGGASGVGSGLGLGGGSSYSYGSGLGVGGGFSSSSGRAIGGGLSSVGGGSSTIKYTTTSSSSRKSYKH [A463P]	disrupting interaction

Variants of: B3
Details: with tri54_human TRIM54, Q9BYV2

Variant	effect of a mutation on the interaction
MASTSTTIRSHSSSRRGFSANSARLPGVSRSGFSSVSVSRSRGSGGLGGACGGAGFGSRSLYGLGGSKRISIGGGSCAISGGYGSRAGGSYGFGGAGSGFGFGGGAGIGFGLGGGAGLAGGFGGPGFPVCPPGGIQEVTVNQSLLTPLNLQIDPTIQRVRAEEREQIKTLNNKFASFIDKVRFLEQQNKVLETKWTLLQEQGTKTVRQNLEPLFEQYINNLRRQLDSIVGERGRLDSELRGMQDLVEDFKNKYEDEINKRTAAENEFVTLKKDVDAAYMNKVELQAKADTLTDEINFLRALYDAELSQMQTHISDTSVVLSMDNNRNLDLDSIIAEVKAQYEEIAQRSRAEAESWYQTKYEELQVTAGRHGDDLRNTKQEIAEINRMIQRLRSEIDHVKKQCANLQAAIADAEQRGEMALKDAKNKLEGLEDALQKAKQDLARLLKEYQELMNVKLALDVEIPTYRKLLEGEECRLNGEGVGQVNISVVQSTVSSGYGGASGVGSGLGLGGGSSYSYGSGLGVGGGFSSSSGRAIGGGLSSVGGGSSTIKYTTTSSSSRKSYKH [A463P]	disrupting interaction

Variants of: B4
Details: with tfp11_human TFIP11, Q9UBB9
Sequence of tfp11_human TFIP11, Q9UBB9 (Q9UBB9 whole entry): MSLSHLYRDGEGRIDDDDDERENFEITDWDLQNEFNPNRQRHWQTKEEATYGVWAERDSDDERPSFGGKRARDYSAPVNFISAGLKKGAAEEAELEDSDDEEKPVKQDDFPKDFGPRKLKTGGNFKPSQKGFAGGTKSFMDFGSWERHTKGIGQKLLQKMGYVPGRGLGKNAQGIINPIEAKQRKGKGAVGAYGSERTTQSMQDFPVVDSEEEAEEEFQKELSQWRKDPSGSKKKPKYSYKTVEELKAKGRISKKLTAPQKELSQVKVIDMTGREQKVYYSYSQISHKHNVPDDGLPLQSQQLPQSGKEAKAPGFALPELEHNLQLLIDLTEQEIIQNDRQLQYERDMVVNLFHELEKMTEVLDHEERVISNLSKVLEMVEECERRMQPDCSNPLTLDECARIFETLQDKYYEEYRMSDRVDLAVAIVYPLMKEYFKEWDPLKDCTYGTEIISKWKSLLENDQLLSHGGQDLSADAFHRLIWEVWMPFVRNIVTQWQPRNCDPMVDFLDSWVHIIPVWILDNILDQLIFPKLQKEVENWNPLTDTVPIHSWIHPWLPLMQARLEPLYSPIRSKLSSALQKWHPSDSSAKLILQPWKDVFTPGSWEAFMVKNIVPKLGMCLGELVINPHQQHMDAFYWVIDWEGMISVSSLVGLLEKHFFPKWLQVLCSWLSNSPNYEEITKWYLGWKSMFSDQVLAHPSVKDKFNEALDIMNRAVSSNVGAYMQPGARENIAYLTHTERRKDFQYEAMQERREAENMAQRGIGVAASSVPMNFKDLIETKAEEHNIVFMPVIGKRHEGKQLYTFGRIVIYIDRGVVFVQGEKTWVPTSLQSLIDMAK

Variant	effect of a mutation on the interaction
MASTSTTIRSHSSSRRGFSANSARLPGVSRSGFSSVSVSRSRGSGGLGGACGGAGFGSRSLYGLGGSKRISIGGGSCAISGGYGSRAGGSYGFGGAGSGFGFGGGAGIGFGLGGGAGLAGGFGGPGFPVCPPGGIQEVTVNQSLLTPLNLQIDPTIQRVRAEEREQIKTLNNKFASFIDKVRFLEQQNKVLETKWTLLQEQGTKTVRQNLEPLFEQYINNLRRQLDSIVGERGRLDSELRGMQDLVEDFKNKYEDEINKRTAAENEFVTLKKDVDAAYMNKVELQAKADTLTDEINFLRALYDAELSQMQTHISDTSVVLSMDNNRNLDLDSIIAEVKAQYEEIAQRSRAEAESWYQTKYEELQVTAGRHGDDLRNTKQEIAEINRMIQRLRSEIDHVKKQCANLQAAIADAEQRGEMALKDAKNKLEGLEDALQKAKQDLARLLKEYQELMNVKLALDVESATYRKLLEGEECRLNGEGVGQVNISVVQSTVSSGYGGASGVGSGLGLGGGSSYSYGSGLGVGGGFSSSSGRAIGGGLSSVGGGSSTIKYTTTSSSSRKSYKH [I462S]	disrupting interaction
